Patent EP4455161A1 (ONO Pharmaceutical Co., Ltd., dated 2024)

Assays:
[1] = biological target: T1, CRMP2 peptide H-EVSVTPKTVTPASSAKTSPAKQQC-NH2 (C-terminal amide); assay: ELISA
T1 peptide: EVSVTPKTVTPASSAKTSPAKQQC

[2] = biological target: T2, CRMP2 peptide TVTPASSAKTSPAKQQAPPVRC-NH2 (C-terminal amide); assay: ELISA
T2 peptide: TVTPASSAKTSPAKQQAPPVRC

[3] = biological target: T3, pCRMP2 peptide H-EVSV(pT)PKTV(pT)PASSAKT(pS)PAKQQC-NH2 (phosphothreonine at T509 and T514, phosphoserine at S522 (CRMP2 numbering); C-terminal amide); assay: ELISA
T3 construct: also called pCRMP2 peptide containing three phospho-sites T509, T514 and S522
T3 peptide: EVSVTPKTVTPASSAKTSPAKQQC

[4] = biological target: T4, pCRMP2 peptide H-TVTPASSAKT(pS)PAKQQAPPVRC-NH2 (phosphoserine at S522 (CRMP2 numbering); C-terminal amide); assay: ELISA
T4 construct: also called pCRMP2 peptide containing a single S522 phospho-site
T4 peptide: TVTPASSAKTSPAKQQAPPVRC

[5] = biological target: T5, Peptide 4152960: …; assay: direct ELISA on coated peptide (Fig. 5)
T5 construct: also called non-phosphorylated CRMP2 peptide

[6] = biological target: T6, Peptide 4152963: …(p)S522PAKQQA (phosphoserine at S522 (CRMP2 numbering)); assay: direct ELISA on coated peptide (Fig. 5)
T6 construct: also called CRMP2 peptide with phosphorylation at S522

[7] = biological target: T7, Peptide 4152961: VCEVSV(p)T509… (phosphothreonine at T509 (CRMP2 numbering)); assay: direct ELISA on coated peptide (Fig. 5)
T7 construct: also called CRMP2 peptide with phosphorylation at T509

[8] = biological target: T8, CRMP2 peptide 129 (VTPASSAKTSPAKQQ) (human); assay: overlapping peptide array
T8 construct: 15-mer spotted on a cellulose membrane array
T8 peptide: VTPASSAKTSPAKQQ

[9] = biological target: T9, CRMP2 peptide 128 (TPKTVTPASSAKTSP) (human); assay: overlapping peptide array
T9 construct: 15-mer spotted on a cellulose membrane array
T9 peptide: TPKTVTPASSAKTSP

[10] = biological target: T10, recombinant human full length CRMP1 (human, UniProt Q14194 1-572); assay: direct ELISA, recombinant human CRMP1-5 coated at 5 µg/mL
T10 construct: mature
T10 sequence (Q14194 whole entry): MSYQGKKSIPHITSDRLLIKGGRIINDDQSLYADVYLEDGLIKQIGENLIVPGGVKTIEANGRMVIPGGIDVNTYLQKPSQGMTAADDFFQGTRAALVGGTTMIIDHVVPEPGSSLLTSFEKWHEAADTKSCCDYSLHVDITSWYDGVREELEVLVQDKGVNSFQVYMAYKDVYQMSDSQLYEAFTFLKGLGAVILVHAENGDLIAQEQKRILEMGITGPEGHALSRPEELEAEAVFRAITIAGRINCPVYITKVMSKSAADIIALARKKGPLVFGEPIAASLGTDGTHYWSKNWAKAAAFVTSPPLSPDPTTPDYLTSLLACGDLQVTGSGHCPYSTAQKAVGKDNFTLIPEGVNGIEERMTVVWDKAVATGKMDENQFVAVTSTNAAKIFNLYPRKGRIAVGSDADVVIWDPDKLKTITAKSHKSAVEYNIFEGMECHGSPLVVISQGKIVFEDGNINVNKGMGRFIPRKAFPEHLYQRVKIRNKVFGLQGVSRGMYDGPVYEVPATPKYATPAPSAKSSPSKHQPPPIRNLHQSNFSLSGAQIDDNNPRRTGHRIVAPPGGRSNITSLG

binding result [1]: binds | binding result [2]: binds | binding result [3]: binds | binding result [4]: binds | binding result [5]: binds | binding result [6]: binds | binding result [7]: binds | binding result [8]: binds | binding result [9]: binds | EC50 [10]: 69 nM
B1: NI-504.3E7 (antibody, human IgG1, V domains shown)
VH: EVQLVETGGGFVQPGGSLQLSCAVSGFPYSGTSFHWVRQVSGKGLEWIGRIRSKSDNYETSYTESLKGRFIVSRDDSKNMVRLHLYSLRTEDTALYYCTTGIIVVDTSYLDHWGRGTLVTVSS
VL: SYELTQPPSASVSPGQTARITCSGAALPKKYAYWYQLKSGQAPVLVIYEDTKRPSGIPERFSGSSSGTLATLTINGALVEDEADYYCYSTDSSGDVWVFGGGTKLTVL
notes: VH_3E7 + VL_3E7
